The sequences below were run on Escherichia coli TOP10 (assay: shrunken log2 fold change of peptide-encoding DNA abundance (4.5 h post-induction vs induction); higher = less antimicrobial activity (less host growth inhibition)). Conditions: time post-induction: 4.5 h; library: site-saturation at positions 5, 18, 19, 20.
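Further: peptides expressed intracellularly from a pBAD plasmid library in pooled LB shake-flask culture, induced with 0.3% L-arabinose, DNA abundance read by NGS, three biological replicates, DESeq2 with apeglm shrinkage.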

First: RRIRARPPRLPRPRPRPGYNPRP
Second: RRIRIRPPRLPRPRPRPIELPRP
The “shrunken log2 fold change” value of the first is lower: -0.403 for the first, 0.0658 for the second.

Going from RRIRIRPPRLPRPRPRPEWVPRP to RRIRHRPPRLPRPRPRPSIFPRP, the “shrunken log2 fold change” value falls from 0.00655 to -0.704.

First: RRIRGRPPRLPRPRPRPPNMPRP
Second: RRIRLRPPRLPRPRPRPIKLPRP
The “shrunken log2 fold change” value of the first is higher: 0.0204 for the first, -0.515 for the second.

RRIRHRPPRLPRPRPRPCDCPRP and RRIRNRPPRLPRPRPRPTCYPRP are within 0.2 log units of each other in “shrunken log2 fold change” value: -0.138 for the first, -0.226 for the second.

Going from RRIRDRPPRLPRPRPRPMLYPRP to RRIRHRPPRLPRPRPRPSHKPRP, the “shrunken log2 fold change” value falls from -0.0839 to -0.718.

Compared with RRIRERPPRLPRPRPRPACNPRP, RRIRNRPPRLPRPRPRPLCCPRP is lower in “shrunken log2 fold change” value: -0.102 for the first, -0.371 for the second.

First: RRIRPRPPRLPRPRPRPAIVPRP
Second: RRIRDRPPRLPRPRPRPSGNPRP
The “shrunken log2 fold change” value of the first is lower: 0.119 for the first, 0.499 for the second.

First: RRIRFRPPRLPRPRPRPKPWPRP
Second: RRIRIRPPRLPRPRPRPPYAPRP
The “shrunken log2 fold change” value of the first is higher: 0.489 for the first, -0.274 for the second.

Going from RRIRNRPPRLPRPRPRPMHPPRP to RRIRHRPPRLPRPRPRPRWPPRP, the “shrunken log2 fold change” value rises from -0.212 to 2.25.

Compared with RRIRRRPPRLPRPRPRPCQTPRP, RRIRSRPPRLPRPRPRPFMTPRP is lower in “shrunken log2 fold change” value: -0.041 for the first, -0.328 for the second.

RRIRPRPPRLPRPRPRPHLRPRP and RRIRSRPPRLPRPRPRPFTRPRP are within 0.2 log units of each other in “shrunken log2 fold change” value: 0.151 for the first, 0.0337 for the second.

RRIRSRPPRLPRPRPRPPLHPRP and RRIRRRPPRLPRPRPRPCVHPRP are within 0.2 log units of each other in “shrunken log2 fold change” value: -0.00448 for the first, -0.0733 for the second.

Going from RRIRMRPPRLPRPRPRPELAPRP to RRIRCRPPRLPRPRPRPAHQPRP, the “shrunken log2 fold change” value falls from 3.6 to 0.133.

Compared with RRIRRRPPRLPRPRPRPDAQPRP, RRIRCRPPRLPRPRPRPGHGPRP is lower in “shrunken log2 fold change” value: 0.471 for the first, -0.0435 for the second.

Going from RRIRGRPPRLPRPRPRPVETPRP to RRIRRRPPRLPRPRPRPKLRPRP, the “shrunken log2 fold change” value rises from 0.689 to 1.25.

First: RRIRCRPPRLPRPRPRPSEHPRP
Second: RRIRDRPPRLPRPRPRPHHQPRP
The “shrunken log2 fold change” value of the first is lower: -0.236 for the first, -0.0302 for the second.

Going from RRIRGRPPRLPRPRPRPEEEPRP to RRIRSRPPRLPRPRPRPDKSPRP, the “shrunken log2 fold change” value falls from 0.107 to -0.2.

Compared with RRIRSRPPRLPRPRPRPMQGPRP, RRIRGRPPRLPRPRPRPRLRPRP is higher in “shrunken log2 fold change” value: -0.181 for the first, 0.87 for the second.

Going from RRIRERPPRLPRPRPRPVISPRP to RRIRWRPPRLPRPRPRPRADPRP, the “shrunken log2 fold change” value rises from -0.145 to 0.667.

RRIRPRPPRLPRPRPRPWQYPRP and RRIRLRPPRLPRPRPRPHVNPRP are within 0.2 log units of each other in “shrunken log2 fold change” value: 0.0173 for the first, -0.105 for the second.

Going from RRIRNRPPRLPRPRPRPGQWPRP to RRIRRRPPRLPRPRPRPEMWPRP, the “shrunken log2 fold change” value rises from 0.244 to 1.14.

Compared with RRIRTRPPRLPRPRPRPLYLPRP, RRIRGRPPRLPRPRPRPGLAPRP is higher in “shrunken log2 fold change” value: -0.558 for the first, 1.25 for the second.

RRIRERPPRLPRPRPRPQNCPRP and RRIRIRPPRLPRPRPRPECAPRP are within 0.2 log units of each other in “shrunken log2 fold change” value: -0.0646 for the first, -0.0969 for the second.

First: RRIRQRPPRLPRPRPRPTRTPRP
Second: RRIRLRPPRLPRPRPRPILPPRP
The “shrunken log2 fold change” value of the first is higher: 1.65 for the first, -0.0368 for the second.

Compared with RRIRRRPPRLPRPRPRPEWLPRP, RRIRRRPPRLPRPRPRPIMAPRP is lower in “shrunken log2 fold change” value: 0.794 for the first, 0.107 for the second.

First: RRIRLRPPRLPRPRPRPQKKPRP
Second: RRIRIRPPRLPRPRPRPLVQPRP
The “shrunken log2 fold change” value of the first is higher: -0.176 for the first, -0.884 for the second.

Going from RRIRFRPPRLPRPRPRPYWIPRP to RRIRWRPPRLPRPRPRPDRYPRP, the “shrunken log2 fold change” value rises from -1.07 to -0.0301.

Going from RRIRMRPPRLPRPRPRPMPLPRP to RRIRCRPPRLPRPRPRPCWTPRP, the “shrunken log2 fold change” value falls from 0.00106 to -0.223.

Going from RRIRQRPPRLPRPRPRPLKFPRP to RRIRLRPPRLPRPRPRPFKWPRP, the “shrunken log2 fold change” value rises from -0.27 to 0.00989.

First: RRIRFRPPRLPRPRPRPWRMPRP
Second: RRIRFRPPRLPRPRPRPHQPPRP
The “shrunken log2 fold change” value of the first is lower: -0.166 for the first, 0.575 for the second.
